Assay results: US5763571, “Inhibiting protein interactions” (The General Hospital Corporation, dated 1998)
No end group written: not given here.

Biological target: GST-Raf(1-257) (human)
Experiment: peptide competition of Ras-GTP / GST-Raf co-precipitation

IC50: 100 µM
Binder: EDSYRKQVVIDGETC (not fully specified (N-terminus, C-terminus)) [Ras 37-51 peptide]
